Patent US9284543B2, “Neutral active soluble truncated PH20 polypeptides and uses thereof” (Halozyme, Inc., priority 2008, dated 2016)

How the values were obtained:
CHO-S cells = experiment: Western blot analysis of PH20 expression in media and cells after transient expression; format: cell-based, Chinese Hamster; settings: media versus cells
Experimental: The mutant PH20-HZ24 plasmids generated in Example 1 were transiently […] into CHO—S cells (derived from Chinese Hamster Ovary CHO K1 cells) using GeneJuice® (Novagen) according to the manufacturer's instructions. In short, the CHO—S cells were grown in CD CHO medium supplemented with L-glutamine. Prior to transfection, the CHO—S cells were plated in 6-well plates, with approximately 5×10^5 cells per well, and grown overnight at 37° C. with 5% CO2. The medium was then removed and the CHO—S cells were washed 2 times with 1 mL serum-free medium. GeneJuice® was mixed with serum-free media followed by the addition of 2 μg mutant-HZ24 DNA. After incubating at room temperature for 5-15 minutes, the GeneJuice®/DNA mixture was added dropwise to an individual well containing the washed CHO—S cells. After 4 hours, the medium was replaced with 1 mL CD-CHO medium supplemented with L-glutamine and the cells were incubated for 72 hours at 37° C. with 5% CO2. Following expression, the media and cells were harvested separately.
The mutant PH20-HZ24 plasmids generated in Example 1 were transiently […] into CHO—S cells using GeneJuice® (Novagen) according to the manufacturer's instructions. […]
In this example, following transient expression, as described in Example 2 above, the media and cells were harvested separately and analyzed for PH20 expression and solublility by Western blot analysis. Solubility of the C-terminus truncation mutants was determined by examining whether the expressed protein was present in the growth media or in the cells. […] Cells expressing these mutants were treated with phosphoinositol-phospholipase C (PI-PLC), which cleaves the GPI-anchor allowing the release of soluble protein into the media, and the presence of PH20 in the resulting media and cells was determined by Western blot analysis.
Non-reduced samples were run on a 4-20% Tris-Glycine gel and transferred to PVDF membrane using iBlot (Invitrogen). For the Western blot, rabbit anti-PH20 IgG (0.5 μg/mL) was used as the primary antibody and HRP-conjugated goat anti-rabbit IgG (0.1 ng/mL, Cat#DC03L, EMD) was used as the secondary antibody. Evidence of expression is determined by a band at approximately 66 kDa, corresponding to recombinant human PH20 hyaluronidase.

[1] = Microtiter hyaluronidase activity assay with biotinylated-hyaluronic acid; format: biochemical; settings: Table 6, 72 hour post transfection supernatant
Experimental: In Example 4, the hyaluronidase activity of truncated human PH20 hyaluronidase is determined using biotinylated hyaluronic acid. The free carboxyl groups on the glucuronic acid residues of hyaluronic acid are biotinylated, and the biotinylated hyaluronic acid substrate is covalently coupled to a microtiter plate. Following incubation with hyaluronidase, the residual biotinylated hyaluronic acid substrate is detected using an avidin-peroxidase reaction, and compared to that obtained following reaction with hyaluronidase standards of known activity. […] The sensitivity permits rapid measurement of hyaluronidase activity from cultured cells and biological samples with an inter-assay variation of less than 10%.
In this example, the human PH20 hyaluronidase carboxy-terminus deletion mutants were tested for their PH20 hyaluronidase activity using a microtiter assay with biotinylated-hyaluronic acid (biotinylated-HA or bHA). The human PH20 hyaluronidase carboxy-terminus deletion mutants were tested for hyaluronidase activity at both pH 7.4 and pH 5.5.
In short, a 4×BH 96-well plate was coated with biotinylated-HA (1.1 MDa). The 72 hour post transfection supernatant from cells transfected with human PH20 hyaluronidase carboxy-terminus deletion mutants was diluted in buffer at either pH 7.4 or pH 5.5 and added to individual wells of the plate and allowed to incubate at 37° C. for 90 minutes. The reaction was terminated by addition of 4M guanidine HCl. The wells were washed 4× with Phosphate Buffered Saline with Tween20 (PBST) to remove any digested biotinylated-HA followed by addition of streptavidin-HRP for 1 hour at room temperature. The wells were washed 4× with PBST and the plate was developed with TMB. The plate was read at 450 nm using an ELISA plate reader. Hyaluronidase activity (in Units/mL) was determined by interpolating the measured absorbance at 450 nm with a hyaluronidase reference standard curve. Full length mature human PH20 hyaluronidase and untransfected CHO cells were used as positive and negative controls.

| pH 5.5 Activity [1] [Units/ml] | pH 7.4 Activity [1] [Units/ml] | Molecule | Expressed in Media (CHO-S cells) |
| --- | --- | --- | --- |
| 0.4725 | 0.5535 | SPAM1-CIDA: C-terminally truncated human PH20, precursor 467 aa (SEQ ID NO:33), mature 432 aa (SEQ ID NO:85) (protein, listed as Homo sapiens, HuPH20 precursor 1-467; Mature HuPH20 36-467) chain 1: MGVLKFKHIFFRSFVKSSGVSQIVFTFLLIPCCLTLNFRAPPVIPNVPFLWAWNAPSEFCLGKFDEPLDMSLFSFIGSPRINATGQGVTIFYVDRLGYYPYIDSITGVTVNGGIPQKISLQDHLDKAKKDITFYMPVDNLGMAVIDWEEWRPTWARNWKPKDVYKNRSIELVQQQNVQLSLTEATEKAKQEFEKAGKDFLVETIKLGKLLRPNHLWGYYLFPDCYNHHYKKPGYNGSCFNVEIKRNDDLSWLWNESTALYPSIYLNTQQSPVAATLYVRNRVREAIRVSKIPDAKSPLPVFAYTRIVFTDQVLKFLSQDELVYTFGETVALGASGIVIWGTLSIMRSMKSCLLLDNYMETILNPYIINVTLAAKMCSQVLCQEQGVCIRKNWNSSDYLHLNPDNFAIQLEKGGKFTVRGKPTLEDLEQFSEKFYCSCYSTLSCKEKADVKDTDAVDVCIADGVCIDA chain 2: LNFRAPPVIPNVPFLWAWNAPSEFCLGKFDEPLDMSLFSFIGSPRINATGQGVTIFYVDRLGYYPYIDSITGVTVNGGIPQKISLQDHLDKAKKDITFYMPVDNLGMAVIDWEEWRPTWARNWKPKDVYKNRSIELVQQQNVQLSLTEATEKAKQEFEKAGKDFLVETIKLGKLLRPNHLWGYYLFPDCYNHHYKKPGYNGSCFNVEIKRNDDLSWLWNESTALYPSIYLNTQQSPVAATLYVRNRVREAIRVSKIPDAKSPLPVFAYTRIVFTDQVLKFLSQDELVYTFGETVALGASGIVIWGTLSIMRSMKSCLLLDNYMETILNPYIINVTLAAKMCSQVLCQEQGVCIRKNWNSSDYLHLNPDNFAIQLEKGGKFTVRGKPTLEDLEQFSEKFYCSCYSTLSCKEKADVKDTDAVDVCIADGVCIDA | YES |
| 2.2365 | 2.3895 | SPAM1-DAFL: C-terminally truncated human PH20, precursor 469 aa (SEQ ID NO:31), mature 434 aa (SEQ ID NO:83) (protein, listed as Homo sapiens, HuPH20 precursor 1-469; Mature HuPH20 36-469) chain 1: MGVLKFKHIFFRSFVKSSGVSQIVFTFLLIPCCLTLNFRAPPVIPNVPFLWAWNAPSEFCLGKFDEPLDMSLFSFIGSPRINATGQGVTIFYVDRLGYYPYIDSITGVTVNGGIPQKISLQDHLDKAKKDITFYMPVDNLGMAVIDWEEWRPTWARNWKPKDVYKNRSIELVQQQNVQLSLTEATEKAKQEFEKAGKDFLVETIKLGKLLRPNHLWGYYLFPDCYNHHYKKPGYNGSCFNVEIKRNDDLSWLWNESTALYPSIYLNTQQSPVAATLYVRNRVREAIRVSKIPDAKSPLPVFAYTRIVFTDQVLKFLSQDELVYTFGETVALGASGIVIWGTLSIMRSMKSCLLLDNYMETILNPYIINVTLAAKMCSQVLCQEQGVCIRKNWNSSDYLHLNPDNFAIQLEKGGKFTVRGKPTLEDLEQFSEKFYCSCYSTLSCKEKADVKDTDAVDVCIADGVCIDAFL chain 2: LNFRAPPVIPNVPFLWAWNAPSEFCLGKFDEPLDMSLFSFIGSPRINATGQGVTIFYVDRLGYYPYIDSITGVTVNGGIPQKISLQDHLDKAKKDITFYMPVDNLGMAVIDWEEWRPTWARNWKPKDVYKNRSIELVQQQNVQLSLTEATEKAKQEFEKAGKDFLVETIKLGKLLRPNHLWGYYLFPDCYNHHYKKPGYNGSCFNVEIKRNDDLSWLWNESTALYPSIYLNTQQSPVAATLYVRNRVREAIRVSKIPDAKSPLPVFAYTRIVFTDQVLKFLSQDELVYTFGETVALGASGIVIWGTLSIMRSMKSCLLLDNYMETILNPYIINVTLAAKMCSQVLCQEQGVCIRKNWNSSDYLHLNPDNFAIQLEKGGKFTVRGKPTLEDLEQFSEKFYCSCYSTLSCKEKADVKDTDAVDVCIADGVCIDAFL | YES |
| 2.925 | 3.204 | SPAM1-AFLK: C-terminally truncated human PH20, precursor 470 aa (SEQ ID NO:30), mature 435 aa (SEQ ID NO:82) (protein, listed as Homo sapiens, HuPH20 precursor 1-470) MGVLKFKHIFFRSFVKSSGVSQIVFTFLLIPCCLTLNFRAPPVIPNVPFLWAWNAPSEFCLGKFDEPLDMSLFSFIGSPRINATGQGVTIFYVDRLGYYPYIDSITGVTVNGGIPQKISLQDHLDKAKKDITFYMPVDNLGMAVIDWEEWRPTWARNWKPKDVYKNRSIELVQQQNVQLSLTEATEKAKQEFEKAGKDFLVETIKLGKLLRPNHLWGYYLFPDCYNHHYKKPGYNGSCFNVEIKRNDDLSWLWNESTALYPSIYLNTQQSPVAATLYVRNRVREAIRVSKIPDAKSPLPVFAYTRIVFTDQVLKFLSQDELVYTFGETVALGASGIVIWGTLSIMRSMKSCLLLDNYMETILNPYIINVTLAAKMCSQVLCQEQGVCIRKNWNSSDYLHLNPDNFAIQLEKGGKFTVRGKPTLEDLEQFSEKFYCSCYSTLSCKEKADVKDTDAVDVCIADGVCIDAFLK | YES |
| 0.6278 | 0.5625 | SPAM1-IDAF: C-terminally truncated human PH20, precursor 468 aa (SEQ ID NO:32), mature 433 aa (SEQ ID NO:84) (protein, listed as Homo sapiens, HuPH20 precursor 1-468; Mature HuPH20 36-468) chain 1: MGVLKFKHIFFRSFVKSSGVSQIVFTFLLIPCCLTLNFRAPPVIPNVPFLWAWNAPSEFCLGKFDEPLDMSLFSFIGSPRINATGQGVTIFYVDRLGYYPYIDSITGVTVNGGIPQKISLQDHLDKAKKDITFYMPVDNLGMAVIDWEEWRPTWARNWKPKDVYKNRSIELVQQQNVQLSLTEATEKAKQEFEKAGKDFLVETIKLGKLLRPNHLWGYYLFPDCYNHHYKKPGYNGSCFNVEIKRNDDLSWLWNESTALYPSIYLNTQQSPVAATLYVRNRVREAIRVSKIPDAKSPLPVFAYTRIVFTDQVLKFLSQDELVYTFGETVALGASGIVIWGTLSIMRSMKSCLLLDNYMETILNPYIINVTLAAKMCSQVLCQEQGVCIRKNWNSSDYLHLNPDNFAIQLEKGGKFTVRGKPTLEDLEQFSEKFYCSCYSTLSCKEKADVKDTDAVDVCIADGVCIDAF chain 2: LNFRAPPVIPNVPFLWAWNAPSEFCLGKFDEPLDMSLFSFIGSPRINATGQGVTIFYVDRLGYYPYIDSITGVTVNGGIPQKISLQDHLDKAKKDITFYMPVDNLGMAVIDWEEWRPTWARNWKPKDVYKNRSIELVQQQNVQLSLTEATEKAKQEFEKAGKDFLVETIKLGKLLRPNHLWGYYLFPDCYNHHYKKPGYNGSCFNVEIKRNDDLSWLWNESTALYPSIYLNTQQSPVAATLYVRNRVREAIRVSKIPDAKSPLPVFAYTRIVFTDQVLKFLSQDELVYTFGETVALGASGIVIWGTLSIMRSMKSCLLLDNYMETILNPYIINVTLAAKMCSQVLCQEQGVCIRKNWNSSDYLHLNPDNFAIQLEKGGKFTVRGKPTLEDLEQFSEKFYCSCYSTLSCKEKADVKDTDAVDVCIADGVCIDAF | YES |
